The results in this text go back to doi:10.1101/2020.08.13.249979 (bioRxiv, 2020).

Several values for one entry are separate records, joined by “and”; a condition that tells them apart may be missing. Equal entries are not always repeated.

The series “negative stain EM” concerns the molecule itself. Kind of series: negative stain EM.
The series “cryo-EM structure” deals with the molecule itself. Kind of series: cryo-EM structure.
The series “cross-linking” deals with the molecule itself. Kind of series: cross-linking.

B1: Vipp1Δα6_(1-219) (domain or fragment)
chain: MGLFDRIKRVVSSNLNDLVNKAEDPEKMLEQAILEMQEDLVQLRQGVAQAIAAQKRSEKQYNDAQNEINKWQRNAQLALQKGDENLARQALERKKTYTDTSAALKASLDTQSTQVETLKRNLIQLESKISEAKTKKEMLKARITTAKAQEQLQGMVRGMNTSSAMSAFERMEEKVLMQESRAQALGELAGADLETQFAQLEGGSDVDDELAALKAQMLP
Take B1: the binding result in the series “negative stain EM” is given as “binds”.

B2: Vipp1/IM30 from Nostoc punctiforme, full-length (amino acids 1-258) (natural protein)
chain: MGLFDRIKRVVSSNLNDLVNKAEDPEKMLEQAILEMQEDLVQLRQGVAQAIAAQKRSEKQYNDAQNEINKWQRNAQLALQKGDENLARQALERKKTYTDTSAALKASLDTQSTQVETLKRNLIQLESKISEAKTKKEMLKARITTAKAQEQLQGMVRGMNTSSAMSAFERMEEKVLMQESRAQALGELAGADLETQFAQLEGGSDVDDELAALKAQMLPPATPVTQAQLPPQQETTPAKSNEVVDAELDSLRKQLDQL
Turning to B2, the stoichiometry N (commonly the number of molecules, sites or subunits per partner or assembly) in “cryo-EM structure” is 84 subunits and 55 subunits to 119 subunits (2×).

B3: Vipp1_(L86C/L193C) (natural protein)
chain: MGLFDRIKRVVSSNLNDLVNKAEDPEKMLEQAILEMQEDLVQLRQGVAQAIAAQKRSEKQYNDAQNEINKWQRNAQLALQKGDENCARQALERKKTYTDTSAALKASLDTQSTQVETLKRNLIQLESKISEAKTKKEMLKARITTAKAQEQLQGMVRGMNTSSAMSAFERMEEKVLMQESRAQALGELAGADCETQFAQLEGGSDVDDELAALKAQMLPPATPVTQAQLPPQQETTPAKSNEVVDAELDSLRKQLDQL
With B3, the binding result in “cross-linking” was “binds”.
